For one substance, other: % invadopodia with PLA spots and other: % invadopodia with no PLA spots (none) (% invadopodia) results are on record in PMC8445963.

This assay addresses MYC-tagged Exo70 wild-type (in MTLn3 cells) (UniProt Q9UPT5). Nature of the assay: proximity ligation assay. Particulars: N = 3 experiments.
Chain of UniProt Q9UPT5 (Q9UPT5 whole entry): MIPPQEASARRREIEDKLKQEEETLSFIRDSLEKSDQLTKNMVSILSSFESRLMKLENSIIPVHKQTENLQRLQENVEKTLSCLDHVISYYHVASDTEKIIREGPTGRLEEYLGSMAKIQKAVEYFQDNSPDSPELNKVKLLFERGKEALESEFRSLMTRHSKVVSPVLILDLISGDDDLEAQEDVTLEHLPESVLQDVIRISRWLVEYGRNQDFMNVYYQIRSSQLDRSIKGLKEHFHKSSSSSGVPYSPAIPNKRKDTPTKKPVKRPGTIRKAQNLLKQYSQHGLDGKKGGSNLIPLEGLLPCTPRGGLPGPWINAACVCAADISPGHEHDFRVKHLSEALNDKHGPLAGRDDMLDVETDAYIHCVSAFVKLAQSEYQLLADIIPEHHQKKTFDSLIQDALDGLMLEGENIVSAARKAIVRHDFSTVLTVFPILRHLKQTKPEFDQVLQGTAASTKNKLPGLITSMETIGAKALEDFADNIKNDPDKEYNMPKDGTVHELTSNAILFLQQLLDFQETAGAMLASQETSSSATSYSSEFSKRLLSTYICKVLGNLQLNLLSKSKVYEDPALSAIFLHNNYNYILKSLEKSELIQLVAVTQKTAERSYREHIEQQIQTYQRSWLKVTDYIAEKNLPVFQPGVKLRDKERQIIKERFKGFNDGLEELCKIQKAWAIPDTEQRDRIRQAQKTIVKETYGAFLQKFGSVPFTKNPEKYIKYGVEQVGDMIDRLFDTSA

Regarding “Flag-tagged TC10 wild-type (in MTLn3 cells) P43L; E45V; Y46H; T49A; Y54C”, the other: % invadopodia with PLA spots at core (% invadopodia) (category: core, parent: est. 23, read off a plot) is 16. For the same substance, where the note is “category: none, parent: est. 33, read off a plot”, the other: % invadopodia with no PLA spots (none) (% invadopodia) amounted to 55. The other: % invadopodia with PLA spots at side (% invadopodia) (category: side, parent: est. 44, read off a plot) was 29.
